As a reminder, the Kd is the equilibrium constant for the complex coming apart.

This is an account of results in article PMC2917185.

In experiment [1] the target is T1, LHCP (light-harvesting chlorophyll a/b binding protein), fluorescein-labeled, P07371. The experiment can be described thus: fluorescence polarisation. The settings on record: remark: other sources report otherwise. Background: Fluorescence polarisation rises when a labelled molecule tumbles more slowly, as on binding a larger partner.
For experiment [2], the target named is T1, LHCP (light-harvesting chlorophyll a/b …). The experiment can be described thus: fluorescence polarisation. Particulars: remark: other sources report otherwise. This is another data set of the same source.

B1: cpSRP43 (mature), O22265 57-373 (natural protein)
chain: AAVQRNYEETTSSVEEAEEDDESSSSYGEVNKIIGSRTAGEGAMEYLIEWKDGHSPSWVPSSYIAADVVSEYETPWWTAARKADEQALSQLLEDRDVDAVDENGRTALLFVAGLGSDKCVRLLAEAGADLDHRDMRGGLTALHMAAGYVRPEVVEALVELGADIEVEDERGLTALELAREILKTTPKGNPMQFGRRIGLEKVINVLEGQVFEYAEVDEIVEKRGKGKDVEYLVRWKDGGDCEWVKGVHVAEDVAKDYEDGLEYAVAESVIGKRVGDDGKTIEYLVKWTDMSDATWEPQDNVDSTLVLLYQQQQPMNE
With B1, the figures for the dissociation constant Kd in experiment [1] and in experiment [2] were 0.138 µM and 0.296 µM, respectively.
